Assay results from article PMC8764530, “Pseudomonas aeruginosa C-Terminal Processing Protease CtpA Assembles into a Hexameric Structure That Requires Activation by a Spiral-Shaped Lipoprotein-Binding Partner” (mBio, 2022).
Where a chain is given by its changes, count along the chain named. Names and notes keep the numbering of the source.

B1: CtpA(ΔC6) (enzyme)
chain: SAPLPLDELRTFAEVLDRVKAAYVEPVDDKTLLENAIKGMLSNLDPHSAYLGPEDFAELQESTSGEFGGLGIEVGSEDGFIKVVSPIDDTPAARAGIQPGDLIVQIDGKPTKGQSMTEAVDSMRGKAGSPITLTIVRDGGRPFDVELKRAIIKVKSVKSQVLEPGYAYLRITQFQVNTGEEVVKALNQLRKDNKGRLKGLVLDLRNNPGGVLQSAVEVADAFLTKGLIVYTKGRIANSELRFSADPADPSDKVPLVVLINGGSASAAEIVAGALQDQKRAILMGTDSFGKGSVQTVLPLNNDRALKLTTALYYTPNGRSIQAQGIVPDIEVGRAKVTQERSSFEGFKEADLQGHLANGNGGADRPTGKRAAPSERPQDSDYQLSQALSLLKGL
notes: Pseudomonas aeruginosa CtpA, ΔN37 construct (from amino acid 38) with the last six residues Ser-431 to Asn-436 removed; also called CtpA(ΔC6) dimer; source: E. coli BL21(DE3), purified (HiTrap-Ni, thrombin, HiTrap-Q, Superdex 200); not shown: His6, N-terminal, cleaved
B2: CtpA-L426K L430K (enzyme)
chain: SAPLPLDELRTFAEVLDRVKAAYVEPVDDKTLLENAIKGMLSNLDPHSAYLGPEDFAELQESTSGEFGGLGIEVGSEDGFIKVVSPIDDTPAARAGIQPGDLIVQIDGKPTKGQSMTEAVDSMRGKAGSPITLTIVRDGGRPFDVELKRAIIKVKSVKSQVLEPGYAYLRITQFQVNTGEEVVKALNQLRKDNKGRLKGLVLDLRNNPGGVLQSAVEVADAFLTKGLIVYTKGRIANSELRFSADPADPSDKVPLVVLINGGSASAAEIVAGALQDQKRAILMGTDSFGKGSVQTVLPLNNDRALKLTTALYYTPNGRSIQAQGIVPDIEVGRAKVTQERSSFEGFKEADLQGHLANGNGGADRPTGKRAAPSERPQDSDYQLSQALSKLKGKSVTRGN
notes: Pseudomonas aeruginosa CtpA, ΔN37 construct (amino acid 38 to the C terminus, Asn-436) with L426K and L430K; also called LLKK; source: E. coli BL21(DE3), purified (HiTrap-Ni, thrombin, HiTrap-Q, Superdex 200); not shown: His6, N-terminal, cleaved
B3: CtpA-L426A L430A (enzyme)
chain: B2 chain with K389A, K393A
notes: Pseudomonas aeruginosa CtpA, ΔN37 construct (amino acid 38 to the C terminus, Asn-436) with L426A and L430A; also called LLAA; source: E. coli BL21(DE3), purified (HiTrap-Ni, thrombin, HiTrap-Q, Superdex 200); not shown: His6, N-terminal, cleaved

Biological target: the molecule itself
Experiment: SEC; gel filtration of CtpA proteins, Superdex 200 prep-grade (16 × 600 mm), 10 mM Tris pH 8.0, 150 mM NaCl

| Protein | stoichiometry N |
| --- | --- |
| B1 | 2 |
| B2 | ~2 |
| B3 | ~2 |
